Measured values as given in patent US20140120113A1.

Columns and labels:
Assay in all cases: cell-based or functional assay
[1] = biological target: HA of influenza virus A/Panama/2007/1999 (H3) (Influenza A virus A/Panama/2007/1999 (H3))
[2] = biological target: HA of influenza virus A/Ck/HK/SSP176/09 (H9) (Influenza A virus A/Chick/HK/SSP176/09 (H9))
[3] = biological target: HA of influenza virus A/Chick/Germany/N/49 (H10) (Influenza A virus A/Chick/Germany/N/49 (H10)) (UniProt P12581)
[4] = biological target: HA of influenza virus A/Env/MPU3156/05 (H2) (Influenza A virus A/Env/MPU3156/05 (H2))
[5] = biological target: HA of influenza virus A/EW/MPH571/08 (H8) (Influenza A virus A/Eurasian Wigeon/MPH571/08 (H8))
[6] = biological target: HA of influenza virus A/EW/MPD411/07 (H6) (Influenza A virus A/Eurasian Wigeon/MPD411/07 (H6))
[7] = biological target: HA of influenza virus A/WF/MPA 892/06 (H4) (Influenza A virus A/WF/HK/MPA892/06 (H4))
[8] = biological target: HA of influenza virus A/Brisbane/59/2007 (H1) (Influenza A virus A/Brisbane/59/2007 (H1))
[9] = biological target: HA of influenza virus A/Hiroshima/52/2005 (H3) (Influenza A virus A/Hiroshima/52/2005 (H3))
[10] = biological target: HA of influenza virus A/Hong Kong/1073/99 (H9) (Influenza A virus A/Hong Kong/1073/99 (H9))
[11] = biological target: HA of influenza virus A/Hong Kong/1/68 (H3) (Influenza A virus A/Hong Kong/1/68 (H3)) (UniProt Q91MA7)
[12] = biological target: HA of influenza virus A/Johannesburg/33/94 (H3) (Influenza A virus A/Johannesburg/33/94 (H3))
[13] = biological target: HA of influenza virus A/EW/MPF461/07 (H5) (Influenza A virus A/Eurasian Wigeon/MPF461/07 (H5))
[14] = biological target: HA of influenza virus A/Brisbane/10/2007 (H3) (Influenza A virus A/Brisbane/10/2007 (H3))

Chain of UniProt P12581 (P12581 17-561 limits assumed): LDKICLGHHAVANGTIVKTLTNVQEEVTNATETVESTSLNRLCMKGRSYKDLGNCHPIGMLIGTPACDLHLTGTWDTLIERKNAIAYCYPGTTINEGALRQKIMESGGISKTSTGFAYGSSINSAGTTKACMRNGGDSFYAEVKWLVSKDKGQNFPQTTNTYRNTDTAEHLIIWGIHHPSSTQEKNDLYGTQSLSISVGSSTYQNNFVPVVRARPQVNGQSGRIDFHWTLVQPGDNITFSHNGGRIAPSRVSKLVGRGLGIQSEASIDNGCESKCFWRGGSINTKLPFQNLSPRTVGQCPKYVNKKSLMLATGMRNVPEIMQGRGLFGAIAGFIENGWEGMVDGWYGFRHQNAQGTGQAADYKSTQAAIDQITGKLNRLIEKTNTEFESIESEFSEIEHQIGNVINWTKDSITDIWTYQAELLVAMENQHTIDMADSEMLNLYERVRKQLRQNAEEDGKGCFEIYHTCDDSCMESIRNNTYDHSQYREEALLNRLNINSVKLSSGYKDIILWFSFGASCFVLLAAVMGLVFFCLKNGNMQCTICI

CR9114 (antibody)
geomean IC50, virus neutralization assay (VNA) [1]: 39.9 µg/mL | geomean IC50, virus neutralization assay (VNA) [2]: 6.3 µg/mL | geomean IC50, virus neutralization assay (VNA) [3]: 15.7 µg/mL | geomean IC50, virus neutralization assay (VNA) [4]: 8.8 µg/mL | geomean IC50, virus neutralization assay (VNA) [5]: 8.8 µg/mL | geomean IC50, virus neutralization assay (VNA) [6]: 10.5 µg/mL | geomean IC50, virus neutralization assay (VNA) [7]: 0.8 µg/mL | geomean IC50, virus neutralization assay (VNA) [8]: 2.6 µg/mL | geomean IC50, virus neutralization assay (VNA) [9]: 12.5 µg/mL | geomean IC50, virus neutralization assay (VNA) [10]: 4.4 µg/mL | geomean IC50, virus neutralization assay (VNA) [11]: 19 µg/mL | geomean IC50, virus neutralization assay (VNA) [12]: 21.9 µg/mL | geomean IC50, virus neutralization assay (VNA) [13]: 10.5 µg/mL | geomean IC50, virus neutralization assay (VNA) [14]: 5.6 µg/mL
